From the Immune Epitope Database (IEDB)

How the values were obtained:
HLA-B*18:01 = assay: IEDB peptide-MHC binding, purified MHC/direct/fluorescence; filed as Kd, often an IC50 or EC50 that approximates it; ≥ and ≤ were set here for values at or beyond the usual limits of such assays
HLA-B*27:03 = assay: as above
HLA-A*02:11 = assay: as above
HLA-B*57:01 [1] = assay: as above
HLA-A*24:03 = assay: as above
HLA-B*39:01 = assay: as above
HLA-B*15:01 [2] = assay: as above
HLA-A*02:03 = assay: as above
HLA-B*51:01 = assay: as above
HLA-B*46:01 = assay: as above
HLA-A*69:01 = assay: as above
HLA-A*03:01 = assay: as above
HLA-A*02:19 = assay: as above
HLA-A*02:01 = assay: as above
HLA-A*26:01 = assay: as above
HLA-B*07:02 = assay: as above
HLA-A*02:12 = assay: as above
HLA-A*02:16 = assay: as above
HLA-B*35:01 = assay: as above
HLA-A*68:02 [3] = assay: IEDB peptide-MHC binding, purified MHC/competitive/fluorescence; filed as Kd, often an IC50 or EC50 that approximates it; ≥ and ≤ were set here for values at or beyond the usual limits of such assays
HLA-B*57:01 [4] = assay: IEDB peptide-MHC binding, purified MHC/competitive/radioactivity; filed as Kd, often an IC50 or EC50 that approximates it; ≥ and ≤ were set here for values at or beyond the usual limits of such assays
HLA-B*15:01 [5] = assay: as above; settings: source organism: Dengue virus 2 Jamaica/1409/1983
HLA-A*01:01 = assay: IEDB peptide-MHC binding, purified MHC/competitive/fluorescence; filed as Kd, often an IC50 or EC50 that approximates it; ≥ and ≤ were set here for values at or beyond the usual limits of such assays; settings: source organism: Influenza A virus (A/swine/Finistere/127/99(H3N2))
HLA-A*68:02 [6] = assay: IEDB peptide-MHC binding, purified MHC/competitive/radioactivity; filed as Kd, often an IC50 or EC50 that approximates it; ≥ and ≤ were set here for values at or beyond the usual limits of such assays; settings: source organism: Dengue virus 1 Brazil/97-11/1997
HLA-A*68:02 [7] = assay: IEDB peptide-MHC binding, purified MHC/direct/fluorescence; filed as Kd, often an IC50 or EC50 that approximates it; ≥ and ≤ were set here for values at or beyond the usual limits of such assays; settings: source organism: Burkholderia mallei
[8] = source organism: Vibrio parahaemolyticus AQ3810
[9] = source organism: Mycobacterium tuberculosis str. Haarlem
[10] = source organism: Dengue virus 2 Jamaica/1409/1983
[11] = source organism: Cryptosporidium parvum Iowa II
[12] = source organism: Burkholderia mallei

## EASTWLDIF
HLA-B*18:01; [8]
  Kd: ≥ 20 µM
HLA-B*27:03; [8]
  Kd: ≥ 20 µM
HLA-A*02:11; [8]
  Kd: ≥ 20 µM
HLA-B*57:01 [1]; [8]
  Kd: ≥ 20 µM
HLA-A*24:03; [8]
  Kd: ≥ 20 µM
HLA-B*39:01; [8]
  Kd: ≥ 20 µM
HLA-B*15:01 [2]; [8]
  Kd: 0.174 µM
HLA-A*02:03; [8]
  Kd: ≥ 20 µM
HLA-B*51:01; [8]
  Kd: ≥ 20 µM
HLA-B*46:01; [8]
  Kd: ≥ 20 µM
HLA-A*69:01; [8]
  Kd: ≥ 20 µM
HLA-A*03:01; [8]
  Kd: ≥ 20 µM
HLA-A*02:19; [8]
  Kd: ≥ 20 µM
HLA-A*02:01; [8]
  Kd: ≥ 20 µM
HLA-A*26:01; [8]
  Kd: ≥ 20 µM
HLA-B*07:02; [8]
  Kd: ≥ 20 µM
HLA-A*02:12; [8]
  Kd: ≥ 20 µM
HLA-A*02:16; [8]
  Kd: ≥ 20 µM
HLA-B*35:01; [8]
  Kd: 0.016 µM

## EILWDVIPF
HLA-B*27:03; [9]
  Kd: ≥ 20 µM
HLA-B*57:01 [1]; [9]
  Kd: ≥ 20 µM
HLA-A*24:03; [9]
  Kd: ≥ 20 µM
HLA-B*39:01; [9]
  Kd: ≥ 20 µM
HLA-B*15:01 [2]; [9]
  Kd: 0.191 µM
HLA-A*02:03; [9]
  Kd: ≥ 20 µM
HLA-B*51:01; [9]
  Kd: ≥ 20 µM
HLA-B*46:01; [9]
  Kd: ≥ 20 µM
HLA-A*03:01; [9]
  Kd: ≥ 20 µM
HLA-A*02:19; [9]
  Kd: ≥ 20 µM
HLA-A*02:01; [9]
  Kd: ≥ 20 µM
HLA-A*26:01; [9]
  Kd: ≥ 20 µM
HLA-B*07:02; [9]
  Kd: 6.5 µM
HLA-A*02:12; [9]
  Kd: ≥ 20 µM
HLA-A*02:16; [9]
  Kd: ≥ 20 µM
HLA-B*35:01; [9]
  Kd: 0.003 µM

## ESAEVEVYV
HLA-A*68:02 [3]; source organism: Vibrio vulnificus YJ016
  Kd: ≤ 0.0001 µM

## ISQGAGWSL
HLA-B*57:01 [4]; [10]
  Kd: 0.472 µM

## ISRMLINRF
HLA-B*57:01 [4]; [10]
  Kd: 0.0159 µM
HLA-B*15:01 [5]
  Kd: 0.178 µM

## LASIDLKY
HLA-A*01:01
  Kd: 3.46 µM

## LPLESCFGV
HLA-B*18:01; [11]
  Kd: ≥ 20 µM
HLA-B*27:03; [11]
  Kd: ≥ 20 µM
HLA-A*02:11; [11]
  Kd: ≥ 20 µM
HLA-B*57:01 [1]; [11]
  Kd: ≥ 20 µM
HLA-A*24:03; [11]
  Kd: ≥ 20 µM
HLA-B*15:01 [2]; [11]
  Kd: ≥ 20 µM
HLA-A*02:03; [11]
  Kd: ≥ 20 µM
HLA-B*51:01; [11]
  Kd: 0.355 µM
HLA-B*46:01; [11]
  Kd: ≥ 20 µM
HLA-A*03:01; [11]
  Kd: ≥ 20 µM
HLA-A*02:19; [11]
  Kd: ≥ 20 µM
HLA-A*26:01; [11]
  Kd: ≥ 20 µM
HLA-A*02:12; [11]
  Kd: ≥ 20 µM

## LTSRENLLLG
HLA-B*57:01 [4]; source organism: Dengue virus 3 Martinique/1243/1999
  Kd: 0.541 µM

## QTSGTTTIFA
HLA-A*68:02 [6]
  Kd: 0.00212 µM
HLA-B*57:01 [4]; source organism: Dengue virus 1 Brazil/97-11/1997
  Kd: 0.454 µM

## RVVRPWGSY
HLA-B*18:01; [12]
  Kd: ≥ 20 µM
HLA-B*27:03; [12]
  Kd: ≥ 20 µM
HLA-A*68:02 [7]
  Kd: ≥ 20 µM
HLA-A*02:11; [12]
  Kd: ≥ 20 µM
HLA-A*24:03; [12]
  Kd: ≥ 20 µM
HLA-B*39:01; [12]
  Kd: ≥ 20 µM
HLA-A*02:03; [12]
  Kd: ≥ 20 µM
HLA-B*51:01; [12]
  Kd: ≥ 20 µM
HLA-B*46:01; [12]
  Kd: ≥ 20 µM
HLA-A*69:01; [12]
  Kd: ≥ 20 µM
HLA-A*02:19; [12]
  Kd: ≥ 20 µM
HLA-A*02:01; [12]
  Kd: ≥ 20 µM
HLA-A*26:01; [12]
  Kd: ≥ 20 µM
HLA-A*02:12; [12]
  Kd: ≥ 20 µM
HLA-A*02:16; [12]
  Kd: ≥ 20 µM

## STYWLMAGL
HLA-A*68:02 [3]; source organism: Yersinia pestis Nepal516
  Kd: 0.0005 µM
